Assay results from publication PMC6886185.

Biological target: eIF4A1 (UniProt P60842)
Assay: fluorescence anisotropy
Conditions: 20 mM Hepes/KOH pH 7.5, 100 (mM) KCl, 1 mM MgCl2, 1 mM AMP-PNP, 1 mM TCEP, 0.1% DMSO, +/-50 uM silvestrol (10 uM in Fig 4a legend), 60 min, 25 C; numeric Kd of …

eIF4A1, sequence (P60842 whole entry): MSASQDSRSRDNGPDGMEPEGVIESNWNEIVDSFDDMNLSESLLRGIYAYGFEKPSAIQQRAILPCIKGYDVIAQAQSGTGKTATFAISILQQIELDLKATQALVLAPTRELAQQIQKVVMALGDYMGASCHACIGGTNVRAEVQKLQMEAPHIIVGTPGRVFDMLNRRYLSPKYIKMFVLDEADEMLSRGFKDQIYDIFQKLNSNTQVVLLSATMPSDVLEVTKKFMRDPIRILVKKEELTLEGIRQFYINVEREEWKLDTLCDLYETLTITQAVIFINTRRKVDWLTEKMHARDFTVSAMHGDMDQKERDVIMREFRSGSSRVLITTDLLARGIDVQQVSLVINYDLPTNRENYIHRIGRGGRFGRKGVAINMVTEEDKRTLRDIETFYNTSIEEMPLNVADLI

Question: With AGAGAGAGAGAGAGAGAGAG [(AG)10 ssRNA] as the sequence, how does the Kd read?
Answer: 0.0033 mM
